T1: Cep192 IDR+ASH8 (Homo sapiens, UniProt Q8TEP8)
T1 chain: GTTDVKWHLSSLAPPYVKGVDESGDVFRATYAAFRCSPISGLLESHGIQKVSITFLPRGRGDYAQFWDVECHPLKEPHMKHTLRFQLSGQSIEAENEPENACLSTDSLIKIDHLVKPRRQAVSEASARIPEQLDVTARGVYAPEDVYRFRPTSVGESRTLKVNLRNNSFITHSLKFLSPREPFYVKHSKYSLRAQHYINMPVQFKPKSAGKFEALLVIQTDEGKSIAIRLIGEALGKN


Tests used:
[1] = target: Centrobin peptide motif (Homo sapiens) (UniProt Q8N137); details: cited from earlier work
Cep192 IDR+ASH8 = target: T1, Cep192 IDR+ASH8; test: GFP-Trap bead supernatant depletion pull-down with western blot

Molecule | Kd [1] [µM] | Kd (Cep192 IDR+ASH8) [µM]
TRIM37 MATH (from UniProt O94972) | 14 | –
TRIM37 (protein) MDEQSVESIAEVFRCFICMEKLRDARLCPHCSKLCCFSCIRRWLTEQRAQCPHCRAPLQLRELVNCRWAEEVTQQLDTLQLCSLTKHEENEKDKCENHHEKLSVFCWTCKKCICHQCALWGGMHGGHTFKPLAEIYEQHVTKVNEEVAKLRRRLMELISLVQEVERNVEAVRNAKDERVREIRNAVEMMIARLDTQLKNKLITLMGQKTSLTQETELLESLLQEVEHQLRSCSKSELISKSSEILMMFQQVHRKPMASFVTTPVPPDFTSELVPSYDSATFVLENFSTLRQRADPVYSPPLQVSGLCWRLKVYPDGNGVVRGYYLSVFLELSAGLPETSKYEYRVEMVHQSCNDPTKNIIREFASDFEVGECWGYNRFFRLDLLANEGYLNPQNDTVILRFQVRSPTFFQKSRDQHWYITQLEAAQTSYIQQINNLKERLTIELSRTQKSRDLSPPDNHLSPQNDDALETRAKKSACSDMLLEGGPTTASVREAKEDEEDEEKIQNEDYHHELSDGDLDLDLVYEDEVNQLDGSSSSASSTATSNTEENDIDEETMSGENDVEYNNMELEEGELMEDAAAAGPAGSSHGYVGSSSRISRRTHLCSAATSSLLDIDPLILIHLLDLKDRSSIENLWGLQPRPPASLLQPTASYSRKDKDQRKQQAMWRVPSDLKMLKRLKTQMAEVRCMKTDVKNTLSEIKSSSAASGDMQTSLFSADQAALAACGTENSGRLQDLGMELLAKSSVANCYIRNSTNKKSNSPKPARSSVAGSLSLRRAVDPGENSRSKGDCQTLSEGSPGSSQSGSRHSSPRALIHGSIGDILPKTEDRQCKALDSDAVVVAVFSGLPAVEKRRKMVTLGANAKGGHLEGLQMTDLENNSETGELQPVLPEGASAAPEEGMSSDSDIECDTENEEQEEHTSVGGFHDSFMVMTQPPDEDTHSSFPDGEQIGPEDLSFNTDENSGR | – | 0.075
